According to publication PMC4434323:

Target: T1, F55C5.11 (F55C5.11) (Caenorhabditis elegans) (UniProt Q1ZXU0)
T1 sequence: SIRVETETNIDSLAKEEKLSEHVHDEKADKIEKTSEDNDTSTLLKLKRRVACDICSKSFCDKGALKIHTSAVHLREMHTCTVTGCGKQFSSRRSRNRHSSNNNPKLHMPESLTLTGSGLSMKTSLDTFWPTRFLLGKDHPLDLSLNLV

Row | Sequence | binding signal (PBM E-score (-0.5 to 0.5))
1 | AGGTGACA (double strand) [8-mer AGGTGACA] | 0.486
2 | AGTGTCAC (double strand) [8-mer AGTGTCAC] | 0.487
3 | ATGTGACA (double strand) [8-mer ATGTGACA] | 0.489
4 | CGGTGACA (double strand) [8-mer CGGTGACA] | 0.488
5 | CTGTCACC (double strand) [8-mer CTGTCACC] | 0.487
6 | GGGTGACA (double strand) [8-mer GGGTGACA] | 0.494
7 | GGTGACAA (double strand) [8-mer GGTGACAA] | 0.487
8 | GGTGACAC (double strand) [8-mer GGTGACAC] | 0.496
9 | GGTGTCAC (double strand) [8-mer GGTGTCAC] | 0.486
10 | GTGACAAA (double strand) [8-mer GTGACAAA] | 0.484
11 | GTGTCACA (double strand) [8-mer GTGTCACA] | 0.488
12 | GTGTGACA (double strand) [8-mer GTGTGACA] | 0.486
13 | TGGTGACA (double strand) [8-mer TGGTGACA] | 0.487
14 | TGTGACAA (double strand) [8-mer TGTGACAA] | 0.485

Target: T2, bed-3 (F25H8.6) (Caenorhabditis elegans) (UniProt Q19787)
T2 sequence: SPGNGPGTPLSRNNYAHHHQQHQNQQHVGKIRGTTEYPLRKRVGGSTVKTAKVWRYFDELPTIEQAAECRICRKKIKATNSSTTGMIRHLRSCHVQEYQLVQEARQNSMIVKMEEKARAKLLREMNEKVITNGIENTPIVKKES

Row | Sequence | binding signal (PBM E-score (-0.5 to 0.5))
15 | ACTCCCGA (double strand) [8-mer ACTCCCGA] | 0.49
16 | ACTCTCGA (double strand) [8-mer ACTCTCGA] | 0.49
17 | AGTCTCGA (double strand) [8-mer AGTCTCGA] | 0.494
18 | ATCTCGAG (double strand) [8-mer ATCTCGAG] | 0.497
19 | CCTCGAGA (double strand) [8-mer CCTCGAGA] | 0.492
20 | CTCGAGAA (double strand) [8-mer CTCGAGAA] | 0.491
21 | CTCGAGAC (double strand) [8-mer CTCGAGAC] | 0.497
22 | CTCGAGAG (double strand) [8-mer CTCGAGAG] | 0.493
23 | GATCCCGA (double strand) [8-mer GATCCCGA] | 0.49
24 | GATCTCGA (double strand) [8-mer GATCTCGA] | 0.493
25 | GCTCTCGA (double strand) [8-mer GCTCTCGA] | 0.491
26 | GGTCTCGA (double strand) [8-mer GGTCTCGA] | 0.491
27 | TCCCGAGA (double strand) [8-mer TCCCGAGA] | 0.493
28 | TCCCGGGA (double strand) [8-mer TCCCGGGA] | 0.491
29 | TCTCGAGA (double strand) [8-mer TCTCGAGA] | 0.499

Target: T3, K11D2.4 (K11D2.4) (Caenorhabditis elegans) (UniProt G5EBU1)
T3 sequence: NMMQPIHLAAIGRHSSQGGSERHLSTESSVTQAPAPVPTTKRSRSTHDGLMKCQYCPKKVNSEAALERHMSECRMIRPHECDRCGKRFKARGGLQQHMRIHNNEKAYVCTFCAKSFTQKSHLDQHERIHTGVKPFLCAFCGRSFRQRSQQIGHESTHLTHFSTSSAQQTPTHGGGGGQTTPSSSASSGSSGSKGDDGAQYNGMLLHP

Row | Sequence | binding signal (PBM E-score (-0.5 to 0.5))
30 | AAAAAACA (double strand) [8-mer AAAAAACA] | 0.495
31 | AAAAAAGA (double strand) [8-mer AAAAAAGA] | 0.495
32 | AAAAAAGT (double strand) [8-mer AAAAAAGT] | 0.494
33 | AATAAAAA (double strand) [8-mer AATAAAAA] | 0.496
34 | ACAAAAAA (double strand) [8-mer ACAAAAAA] | 0.494
35 | CGAAAAAA (double strand) [8-mer CGAAAAAA] | 0.495
